Positions count from the first letter of the chain named. In names and notes the source's numbering stands.
B1: GlyPro-mTGase_Y75A from S. ladakanum (enzyme)
chain: GPDSDERVTPPAEPLDRMPDPYRPSYGRAETIVNNYIRKWQQVYSHRDGRKQQMTEEQREWLSYGCVGVTWVNSGQAPTNRLAFAFFDEDKYKNELKNGRPRSGETRAEFEGRVAKDSFDEAKGFQRARDVASVMNKALENAHDEGAYLDNLKKELANGNDALRNEDARSPFYSALRNTPSFKDRNGGNHDPSKMKAVIYSKHFWSGQDRSGSSDKRKYGDPEAFRPDRGTGLVDMSRDRNIPRSPTSPGESFVNFDYGWFGAQTEADADKTVWTHGNHYHAPNGSLGAMHVYESKFRNWSDGYSDFDRGAYVVTFVPKSWNTAPDKVKQGWP
B2: AlaPro-mTGase from S. mobaraensis (enzyme)
chain: APDSDDRVTPPAEPLDRMPDPYRPSYGRAETVVNNYIRKWQQVYSHRDGRKQQMTEEQREWLSYGCVGVTWVNSGQYPTNRLAFASFDEDRFKNELKNGRPRSGETRAEFEGRVAKESFDEEKGFQRAREVASVMNRALENAHDESAYLDNLKKELANGNDALRNEDARSPFYSALRNTPSFKERNGGNHDPSRMKAVIYSKHFWSGQDRSSSADKRKYGDPDAFRPAPGTGLVDMSRDRNIPRSPTSPGEGFVNFDYGWFGAQTEADADKTVWTHGNHYHAPNGSLGAMHVYESKFRNWSEGYSDFDRGAYVITFIPKSWNTAPDKVKQGWP
B3: GlyPro-mTGase from S. ladakanum (enzyme)
chain: B1 chain with A77Y
B4: GlyPro-mTGase_Y75F from S. ladakanum (enzyme)
chain: B1 chain with A77F
B5: GlyPro-mTGase_Y75N from S. ladakanum (enzyme)
chain: B1 chain with A77N
B6: GlyPro-mTGase_Y62H_Y75N from S. ladakanum (enzyme)
chain: B1 chain with Y64H, A77N
B7: GlyPro-mTGase_Y62H_Y75F from S. ladakanum (enzyme)
chain: B1 chain with Y64H, A77F, K329T
B8: S. ladakanum GlyPro-TGase mutant S250M (enzyme)
chain: B1 chain with A77Y, S252M
B9: S. ladakanum GlyPro-TGase mutant S250P (enzyme)
chain: B1 chain with A77Y, S252P
B10: S. ladakanum GlyPro-TGase mutant S250Q (enzyme)
chain: B1 chain with A77Y, S252Q
B11: S. ladakanum GlyPro-TGase mutant S250R (enzyme)
chain: B1 chain with A77Y, S252R
B12: S. ladakanum GlyPro-TGase mutant S250V (enzyme)
chain: B1 chain with A77Y, S252V
B13: S. ladakanum GlyPro-TGase mutant S250W (enzyme)
chain: B1 chain with A77Y, S252W
B14: S. ladakanum GlyPro-TGase mutant S250Y (enzyme)
chain: B1 chain with A77Y, S252Y
B15: S. ladakanum GlyPro-TGase mutant Y62L (enzyme)
chain: B1 chain with Y64L, A77Y
B16: S. ladakanum GlyPro-TGase mutant Y62M (enzyme)
chain: B1 chain with Y64M, A77Y
B17: S. ladakanum GlyPro-TGase mutant Y62N (enzyme)
chain: B1 chain with Y64N, A77Y
B18: S. ladakanum GlyPro-TGase mutant Y62T (enzyme)
chain: B1 chain with Y64T, A77Y
B19: S. ladakanum GlyPro-TGase mutant Y75C (enzyme)
chain: B1 chain with A77C
B20: S. ladakanum GlyPro-TGase mutant Y75L (enzyme)
chain: B1 chain with A77L
B21: S. ladakanum GlyPro-TGase mutant Y75M (enzyme)
chain: B1 chain with A77M
B22: S. ladakanum GlyPro-TGase mutant S250A (enzyme)
chain: B1 chain with A77Y, S252A
B23: S. ladakanum GlyPro-TGase mutant S250C (enzyme)
chain: B1 chain with A77Y, S252C
B24: S. ladakanum GlyPro-TGase mutant S250D (enzyme)
chain: B1 chain with A77Y, S252D
B25: S. ladakanum GlyPro-TGase mutant S250F (enzyme)
chain: B1 chain with A77Y, S252F
B26: S. ladakanum GlyPro-TGase mutant S250G (enzyme)
chain: B1 chain with A77Y, S252G
B27: S. ladakanum GlyPro-TGase mutant S250H (enzyme)
chain: B1 chain with A77Y, S252H
B28: S. ladakanum GlyPro-TGase mutant S250L (enzyme)
chain: B1 chain with A77Y, S252L

target: wild type human growth hormone (human, UniProt P01241 27-217); experiment: cell-based or functional assay
Sequence (P01241 27-217): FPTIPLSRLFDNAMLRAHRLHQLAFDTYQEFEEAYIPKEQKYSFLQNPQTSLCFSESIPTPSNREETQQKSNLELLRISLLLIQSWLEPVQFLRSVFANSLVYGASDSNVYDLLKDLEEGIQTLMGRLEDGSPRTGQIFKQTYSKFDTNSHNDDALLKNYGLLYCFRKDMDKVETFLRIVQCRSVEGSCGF

Binder	RS (relative selectivity against AlaPro-mTGase from S. mobaraensis)
B1	3
B2	1
B3	1.8
B4	5.1
B5	3.4
B6	4.6
B7	6.4

target: hGHQ40N (human, UniProt P01241 27-217); experiment: cell-based or functional assay
Sequence (P01241 27-217 Q66N): as the sequence (P01241 27-217) above, with Q40N counted along it

Binder	RSA Q141
B8	3.25 relative to wild type TGase
B9	3.99 relative to wild type TGase
B10	1.92 relative to wild type TGase
B11	0.83 relative to wild type TGase
B12	0.96 relative to wild type TGase
B13	2.43 relative to wild type TGase
B14	1.71 relative to wild type TGase
B15	0.2 relative to wild type TGase
B16	0.28 relative to wild type TGase
B17	0.18 relative to wild type TGase
B18	0.19 relative to wild type TGase
B19	0.18 relative to wild type TGase
B20	0.18 relative to wild type TGase
B21	0.18 relative to wild type TGase
B1	0.06 relative to wild type TGase
B22	4.23 relative to wild type TGase
B23	5.34 relative to wild type TGase
B24	1.04 relative to wild type TGase
B25	2.63 relative to wild type TGase
B26	2.42 relative to wild type TGase
B27	2.25 relative to wild type TGase
B28	3.59 relative to wild type TGase

target: hGHQ141N (human, UniProt P01241 27-217); experiment: cell-based or functional assay
Sequence (P01241 27-217 Q167N): as the sequence (P01241 27-217) above, with Q141N counted along it

Binder	RSA Q40
B8	2.22 relative to wild type TGase
B9	1.86 relative to wild type TGase
B10	1.62 relative to wild type TGase
B11	0.59 relative to wild type TGase
B12	0.51 relative to wild type TGase
B13	1.3 relative to wild type TGase
B14	0.95 relative to wild type TGase
B15	0.07 relative to wild type TGase
B16	0.1 relative to wild type TGase
B17	0.05 relative to wild type TGase
B18	0.1 relative to wild type TGase
B19	0.06 relative to wild type TGase
B20	0.06 relative to wild type TGase
B21	0.1 relative to wild type TGase
B1	0.03 relative to wild type TGase
B22	2.57 relative to wild type TGase
B23	3.02 relative to wild type TGase
B24	0.76 relative to wild type TGase
B25	1.85 relative to wild type TGase
B26	1.77 relative to wild type TGase
B27	1.4 relative to wild type TGase
B28	1.9 relative to wild type TGase
